The text below walks through data of patent publication US9315825B2, “Pharmacologically induced transgene ablation system” (The Trustees of the University of Pennsylvania, priority 2010, dated 2016).

For this test, the system named is pCMV.Luciferase reporter gene expression in HEK293 cells. Kind of test: Ablation of luciferase reporter by FokI ablators co-transfected into HEK293 cells (Dual Luciferase assay). The format is cell-based, human. The conditions noted are these: for ablation of Luc reporter with increasing concentration of ablator expression plasmid: 6.25, 12.5, 25, 50 and 100 ng expression plasmid cotransfected with 50 ng pCMV.Luciferase; for expression of the luciferase reporter gene: FIG. 18A: 50 ng pCMV.Luciferase + 200 ng pCMV.FokI, or + transfected FokI protein. On the procedure: Open reading frames encoding for various endonucleases were codon optimized and de novo synthesized by GeneArt. Ablator expression and target plasmids were produced using standard molecular biological cloning techniques. Transfections were performed in HEK293 cells using Lipofectamine™ 2000 transfection reagent (Life Technologies). All transfections were performed using optimal transfection conditions as defined in transfection reagent protocol. Briefly, 200-250 ng plasmid DNA (excluding transfection control plasmid) was complexed with Lipofectamine™ 2000 transfection reagent and added to cells in 96 well plates. DNA quantities were consistent across all conditions by supplementation with an unrelated plasmid containing the same promoter as test plasmids. Transfection complexes were incubated with cells for 4-6 hours as transfection reagent protocol before the addition of FBS supplemented media. Transfected cells were incubated at 37° C. for 24-72 hours. Following incubation, cells were assayed for reporter gene expression using Promega Dual Luciferase detection kit according to the manufacturer's instructions on a BioTek Clarity platereader and renilla luciferase was used to control for transfection efficiency. All samples were performed in quadruplicate and standard errors of the mean were calculated.
The amino acid sequence of the FokI enzyme is provided in SEQ ID NO: 12, wherein amino acids 1 to 387 are the DNA binding domain and amino acids 387 to 584 are the catalytic domain. The codon optimized FokI sequence is provided in SEQ ID NO:1.
In a dose-dependent experiment, the FokI expression vector contained the FokI catalytic domain fused to a zinc finger DNA binding domain (ZFHD). This construct, which is 963 bp, is provided in SEQ ID NO: 21 and is composed of base pairs 1 to 366 bp ZFHD, 367 to 372 bp linker, and 373 to 963 bp FokI catalytic domain. The resulting expression product comprises amino acids 1 to 122 (ZFHD), amino acids 123-124 are a linker and amino acids 125 to 321 are from the FokI catalytic domain. […] No ablation sites were required to be engineered into the transcription unit containing the transgene in this illustration, as luciferase contains multiple native FokI sites.
The plasmid contructs in this example contains either the FokI catalytic domain (198 amino acids (SEQ ID NO: 14), corresponding to amino acids 387 to 584 of the full-length protein) (untethered FokI) or a ZFHD-Fokl catalytic domain of 963 bp as described in Part A above (tethered FokI). Even at the highest concentration, the catalytic domain of FokI which is un-tethered to DNA does have no effect on expression of Luc reporter gene (FIG. 19A).
The HTH-FokI Catalytic domain (SEQ ID NO:5), is composed of 1-171 bp HTH from Gin (a serine recombinase), a linker (bp 172-177), and a FokI catalytic domain (178-768 bp) derived from codon-optimized FokI. The resulting chimeric enzyme (SEQ ID NO: 6) contains aa 1-57 of HTH from Gin, a linker (aa 58-59), and a FokI catalytic domain (amino acids 60-256).
A general note: A reporter such as luciferase makes a cellular process visible.

As for “ZFHD-FokI: FokI catalytic domain fused to a zinc finger homeodomain DNA binding domain (ZFHD), 963 bp, SEQ ID NO: 21”, the “ablation of Luc reporter with increasing concentration of ablator expression plasmid” value is reported as “dose dependent ablation”. For the same molecule, the “ablation of Luc reporter with increasing concentration of ablator expression plasmid” value (listed as ZF-HD-FokI) was “effectively ablated”.

B1: NLS-HTH-FokI: HTH-FokI fusion which further has a heterologous NLS at its N-terminus (protein)
chain: MPKKKRKVGRPPRLTKAEWEQAGRLLAQGIPRKQVALIYDVALSTLYKKHPAKRAHIENDDRINGTKQLVKSELEEKKSELRHKLKYVPHEYIELIEIARNPTQDRILEMKVMEFFMKVYGYRGEHLGGSRKPDGAIYTVGSPIDYGVIVDTKAYSGGYNLPIGQADEMQRYVEENQTRNKHINPNEWWKVYPSSVTEFKFLFVSGHFKGNYKAQLTRLNHITNCNGAVLSVEELLIGGEMIKAGTLTLEEVRRKFNNGEINF
modifications: modified enzyme from SV40, Gin and FokI
notes: HTH-FokI fusion which further has a heterologous NLS at its N-terminus
Take B1: the “activity of HTH-FokI after adding heterologous NLS at the N-terminus” value (6.25-100 ng expression plasmid with 50 ng pCMV.Luciferase, separate experiment) is reported as “further improved”.

B2: wild-type FokI: full-length FokI enzyme (SEQ ID NO: 12) expressed from a cotransfected codon optimized plasmid (protein)
chain: MFLSMVSKIRTFGWVQNPGKFENLKRVVQVFDRNSKVHNEVKNIKIPTLVKESKIQKELVAIMNQHDLIYTYKELVGTGTSIRSEAPCDAIIQATIADQGNKKGYIDNWSSDGFLRWAHALGFIEYINKSDSFVITDVGLAYSKSADGSAIEKEILIEAISSYPPAIRILTLLEDGQHLTKFDLGKNLGFSGESGFTSLPEGILLDTLANAMPKDKGEIRNNWEGSSDKYARMIGGWLDKLGLVKQGKKEFIIPTLGKPDNKEFISHAFKITGEGLKVLRRAKGSTKFTRVPKRVYWEMLATNLTDKEYVRTRRALILEILIKAGSLKIEQIQDNLKKLGFDEVIETIENDIKGLINTGIFIEIKGRFYQLKDHILQFVIPNRGVGTKQLVKSELEEKKSELRHKLKYVPHEYIELIEIARNPTQDRILEMKVMEFFMKVYGYRGEHLGGSRKPDGAIYTVGSPIDYGVIVDTKAYSGGYNLPIGQADEMQRYVEENQTRNKHINPNEWWKVYPSSVTEFKFLFVSGHFKGNYKAQLTRLNHITNCNGAVLSVEELLIGGEMIKAGTLTLEEVRRKFNNGEINF
Take B2: the “expression of the luciferase reporter gene” value is “effective ablated”.

B3: FokI protein: FokI protein delivered (transfected) to the cells (protein, UniProt P14870 2-579, looked up)
Type II restriction enzyme …: VSKIRTFGWVQNPGKFENLKRVVQVFDRNSKVHNEVKNIKIPTLVKESKIQKELVAIMNQHDLIYTYKELVGTGTSIRSEAPCDAIIQATIADQGNKKGYIDNWSSDGFLRWAHALGFIEYINKSDSFVITDVGLAYSKSADGSAIEKEILIEAISSYPPAIRILTLLEDGQHLTKFDLGKNLGFSGESGFTSLPEGILLDTLANAMPKDKGEIRNNWEGSSDKYARMIGGWLDKLGLVKQGKKEFIIPTLGKPDNKEFISHAFKITGEGLKVLRRAKGSTKFTRVPKRVYWEMLATNLTDKEYVRTRRALILEILIKAGSLKIEQIQDNLKKLGFDEVIETIENDIKGLINTGIFIEIKGRFYQLKDHILQFVIPNRGVTKQLVKSELEEKKSELRHKLKYVPHEYIELIEIARNSTQDRILEMKVMEFFMKVYGYRGKHLGGSRKPDGAIYTVGSPIDYGVIVDTKAYSGGYNLPIGQADEMQRYVEENQTRNKHINPNEWWKVYPSSVTEFKFLFVSGHFKGNYKAQLTRLNHITNCNGAVLSVEELLIGGEMIKAGTLTLEEVRRKFNNGEINF
With B3, the “expression of the luciferase reporter gene” value is “partial ablation”.

B4: HTH-FokI: HTH from Gin (a serine recombinase), a linker and FokI catalytic domain, SEQ ID NO: 6 (protein)
chain: MGRPPRLTKAEWEQAGRLLAQGIPRKQVALIYDVALSTLYKKHPAKRAHIENDDRINGTKQLVKSELEEKKSELRHKLKYVPHEYIELIEIARNPTQDRILEMKVMEFFMKVYGYRGEHLGGSRKPDGAIYTVGSPIDYGVIVDTKAYSGGYNLPIGQADEMQRYVEENQTRNKHINPNEWWKVYPSSVTEFKFLFVSGHFKGNYKAQLTRLNHITNCNGAVLSVEELLIGGEMIKAGTLTLEEVRRKFNNGEINF
With B4, the “ablation of Luc reporter with increasing concentration of ablator expression plasmid” value is recorded as “effectively ablated”.

B5: untethered FokI: FokI catalytic domain alone, 198 amino acids (SEQ ID NO: 14), un-tethered to DNA (protein)
chain: MKQLVKSELEEKKSELRHKLKYVPHEYIELIEIARNPTQDRILEMKVMEFFMKVYGYRGEHLGGSRKPDGAIYTVGSPIDYGVIVDTKAYSGGYNLPIGQADEMQRYVEENQTRNKHINPNEWWKVYPSSVTEFKFLFVSGHFKGNYKAQLTRLNHITNCNGAVLSVEELLIGGEMIKAGTLTLEEVRRKFNNGEINF
For the molecule B5, the “ablation of Luc reporter with increasing concentration of ablator expression plasmid” value was “no effect”.
